# Experiments:
# TrCel7A [1] = biological target: T1, TrCel7A (Trichoderma reesei, UniProt P62694, E229Q); assay: intrinsic protein fluorescence quenching titration; assay type: binding
# T1 sequence (P62694 18-513 E229Q): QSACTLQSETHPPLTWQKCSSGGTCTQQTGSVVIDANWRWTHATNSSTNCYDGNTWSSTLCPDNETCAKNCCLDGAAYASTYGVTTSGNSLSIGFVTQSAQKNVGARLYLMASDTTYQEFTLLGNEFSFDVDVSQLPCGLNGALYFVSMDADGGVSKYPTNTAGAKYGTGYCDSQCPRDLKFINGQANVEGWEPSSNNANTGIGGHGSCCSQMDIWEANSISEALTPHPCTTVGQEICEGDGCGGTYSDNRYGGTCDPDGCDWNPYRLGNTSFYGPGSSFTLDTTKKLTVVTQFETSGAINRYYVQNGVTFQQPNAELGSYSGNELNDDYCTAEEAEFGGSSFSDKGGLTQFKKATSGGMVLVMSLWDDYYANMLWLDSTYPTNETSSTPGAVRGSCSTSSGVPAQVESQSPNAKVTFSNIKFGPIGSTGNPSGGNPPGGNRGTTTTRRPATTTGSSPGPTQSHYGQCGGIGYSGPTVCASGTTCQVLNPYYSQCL
# PcCel7D [2] = biological target: T2, PcCel7D (Phanerodontia chrysosporium, UniProt Q7LIJ0); assay: intrinsic protein fluorescence quenching titration; assay type: binding
# T2 sequence (Q7LIJ0 19-510): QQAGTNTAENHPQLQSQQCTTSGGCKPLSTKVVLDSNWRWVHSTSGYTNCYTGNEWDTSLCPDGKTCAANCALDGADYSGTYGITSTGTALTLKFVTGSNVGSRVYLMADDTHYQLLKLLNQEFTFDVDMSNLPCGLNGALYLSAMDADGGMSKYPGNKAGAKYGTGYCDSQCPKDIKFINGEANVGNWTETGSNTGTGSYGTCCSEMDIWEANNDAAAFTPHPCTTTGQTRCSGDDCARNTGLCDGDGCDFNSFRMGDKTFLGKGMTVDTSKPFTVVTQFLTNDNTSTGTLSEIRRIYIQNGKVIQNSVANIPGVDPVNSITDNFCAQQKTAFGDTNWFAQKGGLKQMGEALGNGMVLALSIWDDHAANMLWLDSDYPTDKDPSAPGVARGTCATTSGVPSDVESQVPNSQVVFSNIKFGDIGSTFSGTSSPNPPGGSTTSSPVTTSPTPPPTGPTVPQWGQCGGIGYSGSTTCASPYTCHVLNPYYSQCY
# TrCel7A [3] = biological target: T3, TrCel7A (Trichoderma reesei, UniProt P62694); assay: inhibition of MUC hydrolysis, fluorometric; assay type: biochemical
# T3 sequence (P62694 18-513): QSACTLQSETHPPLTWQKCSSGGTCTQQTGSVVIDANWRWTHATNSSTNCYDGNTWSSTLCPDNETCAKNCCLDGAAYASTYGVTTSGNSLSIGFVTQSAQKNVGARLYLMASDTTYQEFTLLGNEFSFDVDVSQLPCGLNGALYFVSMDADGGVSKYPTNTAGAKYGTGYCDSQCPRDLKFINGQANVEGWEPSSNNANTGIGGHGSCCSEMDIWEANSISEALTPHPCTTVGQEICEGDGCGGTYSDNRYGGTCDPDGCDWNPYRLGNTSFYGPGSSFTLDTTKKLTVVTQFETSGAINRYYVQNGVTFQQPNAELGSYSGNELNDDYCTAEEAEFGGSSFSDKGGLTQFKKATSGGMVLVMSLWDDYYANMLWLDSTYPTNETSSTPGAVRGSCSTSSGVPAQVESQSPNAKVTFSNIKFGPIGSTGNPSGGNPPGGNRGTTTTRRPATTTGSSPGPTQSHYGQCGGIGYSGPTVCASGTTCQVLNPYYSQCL
# TrCel7A [4] = biological target: T3, TrCel7A; assay: intrinsic protein fluorescence quenching titration; assay type: binding
# TrCel7A [5] = biological target: T4, TrCel7A (Trichoderma reesei, UniProt P62694, E234Q); assay: intrinsic protein fluorescence quenching titration; assay type: binding
# T4 sequence (P62694 18-513 E234Q): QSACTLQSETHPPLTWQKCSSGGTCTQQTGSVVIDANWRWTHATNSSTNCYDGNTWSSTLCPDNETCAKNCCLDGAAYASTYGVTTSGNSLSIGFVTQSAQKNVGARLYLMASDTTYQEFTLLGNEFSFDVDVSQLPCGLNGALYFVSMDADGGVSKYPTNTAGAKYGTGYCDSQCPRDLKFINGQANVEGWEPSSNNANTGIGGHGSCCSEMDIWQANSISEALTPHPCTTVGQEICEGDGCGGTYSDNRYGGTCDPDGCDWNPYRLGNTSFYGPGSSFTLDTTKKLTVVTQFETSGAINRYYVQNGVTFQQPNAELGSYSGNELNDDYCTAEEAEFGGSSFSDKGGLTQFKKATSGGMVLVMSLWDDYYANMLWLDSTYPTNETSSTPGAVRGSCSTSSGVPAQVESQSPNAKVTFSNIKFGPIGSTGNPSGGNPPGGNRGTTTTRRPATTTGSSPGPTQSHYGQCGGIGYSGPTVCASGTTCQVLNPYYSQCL
# TrCel7A [6] = biological target: T5, TrCel7A (Trichoderma reesei, UniProt P62694, D231N); assay: intrinsic protein fluorescence quenching titration; assay type: binding
# T5 sequence (P62694 18-513 D231N): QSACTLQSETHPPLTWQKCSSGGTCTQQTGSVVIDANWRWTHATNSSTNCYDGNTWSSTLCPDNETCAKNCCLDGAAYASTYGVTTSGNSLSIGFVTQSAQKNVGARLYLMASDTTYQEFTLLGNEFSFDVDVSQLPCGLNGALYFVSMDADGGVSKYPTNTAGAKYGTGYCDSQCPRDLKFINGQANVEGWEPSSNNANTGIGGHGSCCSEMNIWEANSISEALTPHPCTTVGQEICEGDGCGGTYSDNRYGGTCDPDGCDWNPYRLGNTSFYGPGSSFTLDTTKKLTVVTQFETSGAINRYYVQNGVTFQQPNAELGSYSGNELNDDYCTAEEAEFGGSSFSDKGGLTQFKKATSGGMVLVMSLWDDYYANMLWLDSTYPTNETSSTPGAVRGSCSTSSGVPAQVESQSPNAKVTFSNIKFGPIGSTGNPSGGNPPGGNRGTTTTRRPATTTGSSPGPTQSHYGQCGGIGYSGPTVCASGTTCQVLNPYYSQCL
# PcCel7D [7] = biological target: T2, PcCel7D; assay: inhibition of pNPL hydrolysis, absorbance of pNP at […] nm; assay type: biochemical; conditions: read-out: K i for lactose (μM) ^b; pNPL as substrate, 0.2 mM lactose; competitive; 10 mM sodium acetate, pH 5.0, 20 °C
# TrCel7A [8] = biological target: T3, TrCel7A; assay: as above; assay type: biochemical; conditions: read-out: K i for lactose (μM) ^b; pNPL as substrate, 0.2 mM lactose; competitive; 10 mM sodium acetate, pH 5.0, 20 °C
# purified protein [9] = substrate: Cc1cc(=O)oc2cc(O[C@@H]3O[C@H](CO)[C@@H](O[C@@H]4O[C@H](CO)[C@@H](O)[C@H](O)[C@H]4O)[C@H](O)[C@H]3O)ccc12; assay: purified protein; conditions: 50 mM sodium acetate, pH 5.0, 25 °C
# purified protein [10] = substrate: O=[N+]([O-])c1ccc(O[C@@H]2O[C@H](CO)[C@@H](O[C@@H]3O[C@H](CO)[C@@H](O)[C@H](O)[C@H]3O)[C@H](O)[C@H]2O)cc1; assay: purified protein; conditions: 50 mM sodium acetate, pH 5.0, 25 °C
# purified protein [11] = substrate: O=[N+]([O-])c1ccccc1O[C@@H]1O[C@H](CO)[C@@H](O[C@@H]2O[C@H](CO)[C@@H](O)[C@H](O)[C@H]2O)[C@H](O)[C@H]1O; assay: purified protein; conditions: 50 mM sodium acetate, pH 5.0, 25 °C
# purified protein [12] = substrate: [H][C@@]1(O[C@H]2[C@H](O)[C@@H](O)[C@H](Oc3ccc([N+](=O)[O-])cc3)O[C@@H]2CO)O[C@H](CO)[C@H](O)[C@H](O)[C@H]1O; assay: purified protein; conditions: 50 mM sodium acetate, pH 5.0, 25 °C
molecule,measurement,setting,value
"O=[N+]([O-])c1ccccc1O[C@@H]1O[C@H](CO)[C@@H](O[C@@H]2O[C@H](CO)[C@@H](O)[C@H](O)[C@H]2O)[C@H](O)[C@H]1O [oNPC, o-nitrophenyl-β-D-cellobioside]",Kd,TrCel7A [1],4.7 ± 0.4 µM
same,Kd,PcCel7D [2],110 ± 10 µM
same,Ki,TrCel7A [3],5.6 ± 0.5 µM
same,Kd,TrCel7A [4],7.4 ± 0.4 µM
same,Kd,TrCel7A [5],3.9 ± 0.4 µM
same,Kd,TrCel7A [6],7.1 ± 0.7 µM
OC[C@H]1O[C@@H](O[C@H]2[C@H](O)[C@@H](O)C(O)O[C@@H]2CO)[C@H](O)[C@@H](O)[C@H]1O (some centres unmarked) [lactose],Ki,PcCel7D [7],183 ± 16 µM
same,Ki,TrCel7A [8],180 ± 16 µM
PcCel7D (Phanerodontia chrysosporium) (protein) QQAGTNTAENHPQLQSQQCTTSGGCKPLSTKVVLDSNWRWVHSTSGYTNCYTGNEWDTSLCPDGKTCAANCALDGADYSGTYGITSTGTALTLKFVTGSNVGSRVYLMADDTHYQLLKLLNQEFTFDVDMSNLPCGLNGALYLSAMDADGGMSKYPGNKAGAKYGTGYCDSQCPKDIKFINGEANVGNWTETGSNTGTGSYGTCCSEMDIWEANNDAAAFTPHPCTTTGQTRCSGDDCARNTGLCDGDGCDFNSFRMGDKTFLGKGMTVDTSKPFTVVTQFLTNDNTSTGTLSEIRRIYIQNGKVIQNSVANIPGVDPVNSITDNFCAQQKTAFGDTNWFAQKGGLKQMGEALGNGMVLALSIWDDHAANMLWLDSDYPTDKDPSAPGVARGTCATTSGVPSDVESQVPNSQVVFSNIKFGDIGSTFSGTSSPNPPGGSTTSSPVTTSPTPPPTGPTVPQWGQCGGIGYSGSTTCASPYTCHVLNPYYSQCY,Km,purified protein [9],210 ± 20 µM
same,kcat,purified protein [9],0.22 ± 0.01 s⁻¹
same,kcat/Km,purified protein [9],1050 M⁻¹ s⁻¹
same,Km,purified protein [10],1300 ± 160 µM
same,kcat,purified protein [10],0.046 ± 0.0021 s⁻¹
same,kcat/Km,purified protein [10],35 M⁻¹ s⁻¹
same,Km,purified protein [11],3200 ± 100 µM
same,kcat,purified protein [11],0.015 ± 0.002 s⁻¹
same,kcat/Km,purified protein [11],4.6 M⁻¹ s⁻¹
same,Km,purified protein [12],5500 ± 400 µM
same,kcat,purified protein [12],0.17 ± 0.01 s⁻¹
same,kcat/Km,purified protein [12],31 M⁻¹ s⁻¹
TrCel7A (Trichoderma reesei) (protein) QSACTLQSETHPPLTWQKCSSGGTCTQQTGSVVIDANWRWTHATNSSTNCYDGNTWSSTLCPDNETCAKNCCLDGAAYASTYGVTTSGNSLSIGFVTQSAQKNVGARLYLMASDTTYQEFTLLGNEFSFDVDVSQLPCGLNGALYFVSMDADGGVSKYPTNTAGAKYGTGYCDSQCPRDLKFINGQANVEGWEPSSNNANTGIGGHGSCCSEMDIWEANSISEALTPHPCTTVGQEICEGDGCGGTYSDNRYGGTCDPDGCDWNPYRLGNTSFYGPGSSFTLDTTKKLTVVTQFETSGAINRYYVQNGVTFQQPNAELGSYSGNELNDDYCTAEEAEFGGSSFSDKGGLTQFKKATSGGMVLVMSLWDDYYANMLWLDSTYPTNETSSTPGAVRGSCSTSSGVPAQVESQSPNAKVTFSNIKFGPIGSTGNPSGGNPPGGNRGTTTTRRPATTTGSSPGPTQSHYGQCGGIGYSGPTVCASGTTCQVLNPYYSQCL,Km,purified protein [9],12 ± 1 µM
same,kcat,purified protein [9],0.013 ± 0.001 s⁻¹
same,kcat/Km,purified protein [9],1080 M⁻¹ s⁻¹

# From article PMC10087753 (The Febs Journal, 2022)
